Test results: article PMC10908814

Target: T1, NgAgo (engineered Natronobacterium gregoryi Argonaute) (Natronobacterium gregoryi) (UniProt L0AJX6)
T1 sequence: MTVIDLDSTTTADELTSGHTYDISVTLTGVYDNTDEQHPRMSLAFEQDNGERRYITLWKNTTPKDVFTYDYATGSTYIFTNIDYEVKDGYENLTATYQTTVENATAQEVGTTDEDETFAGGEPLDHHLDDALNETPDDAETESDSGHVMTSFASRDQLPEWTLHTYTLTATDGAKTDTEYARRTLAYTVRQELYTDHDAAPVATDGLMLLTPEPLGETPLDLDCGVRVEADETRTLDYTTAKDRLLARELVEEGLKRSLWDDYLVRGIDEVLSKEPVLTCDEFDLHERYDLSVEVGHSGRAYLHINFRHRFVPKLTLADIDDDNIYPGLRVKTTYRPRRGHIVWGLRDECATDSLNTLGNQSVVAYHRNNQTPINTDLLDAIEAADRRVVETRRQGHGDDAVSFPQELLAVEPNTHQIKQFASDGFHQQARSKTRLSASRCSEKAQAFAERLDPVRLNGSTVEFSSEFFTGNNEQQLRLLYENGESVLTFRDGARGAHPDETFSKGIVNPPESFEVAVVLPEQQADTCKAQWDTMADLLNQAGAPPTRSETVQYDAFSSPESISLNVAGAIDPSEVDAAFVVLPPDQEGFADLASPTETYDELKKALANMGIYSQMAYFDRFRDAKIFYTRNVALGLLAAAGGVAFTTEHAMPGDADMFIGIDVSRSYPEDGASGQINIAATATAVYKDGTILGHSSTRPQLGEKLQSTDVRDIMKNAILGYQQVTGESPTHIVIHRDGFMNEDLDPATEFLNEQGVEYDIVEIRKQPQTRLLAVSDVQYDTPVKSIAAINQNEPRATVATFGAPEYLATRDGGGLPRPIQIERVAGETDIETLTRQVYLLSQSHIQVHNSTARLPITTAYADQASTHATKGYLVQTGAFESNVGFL
Test: SPR
Conditions: 5'-phosphate on guide; SPR: 10 mM HEPES, 150 mM NaCl, 3 mM EDTA, pH 7.4, 0.005% Tween-20, temperature not stated; EMSA: 2% agarose, 1x TAE, 100 V

TAAACCCAAAGAATGTCTGAGGGG / CCCTCCTTTTGTAAACAATGCATTCATCGACCTTCCAGCCGGGGTTGGTTCTGCCCCTCTCTCTGTCCTTCAGAGGAACCAGGGACCTCGGGCACCCCAGAGCCCCTCGGGCCCGCCTCCAGGCGCCCTCCTGGTCTCCGCTCCCCTCTGAGCCCCGTTAAACCCAAAGAATGTCTGAGGGGAGCCACCCTCGGGGCCCAGGCCCCAGAGTCACAC / CCCCTCAGACATTCTTTGGGTTTA [g3 guide / EBV cfDNA SPR amplicon]
Kd: 5.49 nM
